# Laboratory results published in patent publication US20060286066A1 (published 2006).
# B1: HEL4 PEGylated with SPA-PEG (other)
# VH: EVQLLESGGGLVQPGGSLRLSCAASGFRISDEDMGWVRQAPGKGLEWVSSIYGPSGSTYYADSVKGRFTISRDNSKNTLYLQMNSLRAEDTAVYYCASALEPLSEPLGFWGQGTLVTVSS
# modifications: SPA-PEG on surface lysine residues (sites not given)
# notes: also called PEGylated HEL4
# B2: HEL4 PEGylated with NHS-PEG (other)
# VH: EVQLLESGGGLVQPGGSLRLSCAASGFRISDEDMGWVRQAPGKGLEWVSSIYGPSGSTYYADSVKGRFTISRDNSKNTLYLQMNSLRAEDTAVYYCASALEPLSEPLGFWGQGTLVTVSS
# modifications: NHS-PEG on surface lysine residues (sites not given)
# notes: also called PEGylated HEL4; HEL4 40K PEG-NHS
# B3: TAR2-10-27 Asp62cys blocked (other)
# VH: ASTEVQLLESGGGLVQPGGSLRLSCAASGFTFEWYWMGWVRQAPGKGLEWVSAISGSGGSTYYACSVKGRFTISRDNSKNTLYLQMNSLRAEDAAVYYCAKVKLGGGPNFGYRGQGTLVTVSS
# modifications: Cys62 blocked with N-ethylmaleimide
# notes: For numbering and entry offset see m28
# B4: TAR2-10-27 Asp62cys 30K MAL PEG (protein)
# VH: ASTEVQLLESGGGLVQPGGSLRLSCAASGFTFEWYWMGWVRQAPGKGLEWVSAISGSGGSTYYACSVKGRFTISRDNSKNTLYLQMNSLRAEDAAVYYCAKVKLGGGPNFGYRGQGTLVTVSS
# modifications: 30K MAL-PEG on Cys62
# B5: TAR2-10-27 Pro41cys blocked (other)
# VH: ASTEVQLLESGGGLVQPGGSLRLSCAASGFTFEWYWMGWVRQACGKGLEWVSAISGSGGSTYYADSVKGRFTISRDNSKNTLYLQMNSLRAEDAAVYYCAKVKLGGGPNFGYRGQGTLVTVSS
# modifications: Cys41 blocked with N-ethylmaleimide
# notes: as for B3
# B6: TAR2-10-27 Gln13cys blocked (other)
# VH: ASTEVQLLESGGGLVCPGGSLRLSCAASGFTFEWYWMGWVRQAPGKGLEWVSAISGSGGSTYYADSVKGRFTISRDNSKNTLYLQMNSLRAEDAAVYYCAKVKLGGGPNFGYRGQGTLVTVSS
# modifications: Cys13 blocked with N-ethylmaleimide
# notes: as for B3
# B7: TAR2-10-27 Ser120cys 30K MAL PEG (other)
# VH: ASTEVQLLESGGGLVQPGGSLRLSCAASGFTFEWYWMGWVRQAPGKGLEWVSAISGSGGSTYYADSVKGRFTISRDNSKNTLYLQMNSLRAEDAAVYYCAKVKLGGGPNFGYRGQGTLVTVSC
# modifications: 30K MAL-PEG on the C-terminal Cys (Ser120cys)
# notes: TAR2-10-27 cys; For the limits of the entry see m36; also called TAR210-27 30K MAL PEG
# B8: TAR2-10-27 Gln112cys blocked (other)
# VH: ASTEVQLLESGGGLVQPGGSLRLSCAASGFTFEWYWMGWVRQAPGKGLEWVSAISGSGGSTYYADSVKGRFTISRDNSKNTLYLQMNSLRAEDAAVYYCAKVKLGGGPNFGYRGCGTLVTVSS
# modifications: Cys112 blocked with N-ethylmaleimide
# notes: as for B3
# B9: TAR2-10-27 Pro41cys 30K MAL PEG (other)
# VH: ASTEVQLLESGGGLVQPGGSLRLSCAASGFTFEWYWMGWVRQACGKGLEWVSAISGSGGSTYYADSVKGRFTISRDNSKNTLYLQMNSLRAEDAAVYYCAKVKLGGGPNFGYRGQGTLVTVSS
# modifications: 30K MAL-PEG on Cys41
# notes: as for B3
# B10: TAR2-10-27 Ser120cys blocked (other)
# VH: ASTEVQLLESGGGLVQPGGSLRLSCAASGFTFEWYWMGWVRQAPGKGLEWVSAISGSGGSTYYADSVKGRFTISRDNSKNTLYLQMNSLRAEDAAVYYCAKVKLGGGPNFGYRGQGTLVTVSC
# modifications: C-terminal Cys (Ser120cys) blocked with N-ethylmaleimide
# notes: TAR2-10-27 cys; the entry already carries Ser120cys
# B11: TAR2-10-27 Gln112cys 30K MAL PEG (other)
# VH: ASTEVQLLESGGGLVQPGGSLRLSCAASGFTFEWYWMGWVRQAPGKGLEWVSAISGSGGSTYYADSVKGRFTISRDNSKNTLYLQMNSLRAEDAAVYYCAKVKLGGGPNFGYRGCGTLVTVSS
# modifications: 30K MAL-PEG on Cys112
# notes: as for B3
# B12: TAR2-10-27 Glu89cys 30K MAL PEG (other)
# VH: ASTEVQLLESGGGLVQPGGSLRLSCAASGFTFEWYWMGWVRQAPGKGLEWVSAISGSGGSTYYADSVKGRFTISRDNSKNTLYLQMNSLRACDAAVYYCAKVKLGGGPNFGYRGQGTLVTVSS
# modifications: 30K MAL-PEG on Cys89
# notes: as for B3
# B13: TAR2-10-27 Thr117cys 30K MAL PEG (other)
# VH: ASTEVQLLESGGGLVQPGGSLRLSCAASGFTFEWYWMGWVRQAPGKGLEWVSAISGSGGSTYYADSVKGRFTISRDNSKNTLYLQMNSLRAEDAAVYYCAKVKLGGGPNFGYRGQGTLVCVSS
# modifications: 30K MAL-PEG on Cys117
# notes: as for B3
# B14: TAR210-27 20K MAL PEG (other)
# VH: ASTEVQLLESGGGLVQPGGSLRLSCAASGFTFEWYWMGWVRQAPGKGLEWVSAISGSGGSTYYADSVKGRFTISRDNSKNTLYLQMNSLRAEDAAVYYCAKVKLGGGPNFGYRGQGTLVTVSC
# modifications: 20K MAL-PEG on the C-terminal Cys (Ser120cys)
# notes: For the limits of the entry see m36
# B15: TAR2-10-27 Leu115cys blocked (other)
# VH: ASTEVQLLESGGGLVQPGGSLRLSCAASGFTFEWYWMGWVRQAPGKGLEWVSAISGSGGSTYYADSVKGRFTISRDNSKNTLYLQMNSLRAEDAAVYYCAKVKLGGGPNFGYRGQGTCVTVSS
# modifications: Cys115 blocked with N-ethylmaleimide
# notes: as for B3
# B16: TAR2-10-27 Thr117cys blocked (other)
# VH: ASTEVQLLESGGGLVQPGGSLRLSCAASGFTFEWYWMGWVRQAPGKGLEWVSAISGSGGSTYYADSVKGRFTISRDNSKNTLYLQMNSLRAEDAAVYYCAKVKLGGGPNFGYRGQGTLVCVSS
# modifications: Cys117 blocked with N-ethylmaleimide
# notes: as for B3
# B17: TAR210-27 2 × 10K MAL PEG (other)
# VH: ASTEVQLLESGGGLVQPGGSLRLSCAASGFTFEWYWMGWVRQAPGKGLEWVSAISGSGGSTYYADSVKGRFTISRDNSKNTLYLQMNSLRAEDAAVYYCAKVKLGGGPNFGYRGQGTLVTVSC
# modifications: 2 × 10K MAL-PEG on the C-terminal Cys (Ser120cys)
# notes: as for B14
# B18: TAR210-27 5K MAL PEG (other)
# VH: ASTEVQLLESGGGLVQPGGSLRLSCAASGFTFEWYWMGWVRQAPGKGLEWVSAISGSGGSTYYADSVKGRFTISRDNSKNTLYLQMNSLRAEDAAVYYCAKVKLGGGPNFGYRGQGTLVTVSC
# modifications: 5K MAL-PEG on the C-terminal Cys (Ser120cys)
# notes: as for B14
# B19: TAR2-10-27 Leu115cys 30K MAL PEG (other)
# VH: ASTEVQLLESGGGLVQPGGSLRLSCAASGFTFEWYWMGWVRQAPGKGLEWVSAISGSGGSTYYADSVKGRFTISRDNSKNTLYLQMNSLRAEDAAVYYCAKVKLGGGPNFGYRGQGTCVTVSS
# modifications: 30K MAL-PEG on Cys115
# notes: as for B3
# B20: TAR2-10-27 Glu89cys blocked (other)
# VH: ASTEVQLLESGGGLVQPGGSLRLSCAASGFTFEWYWMGWVRQAPGKGLEWVSAISGSGGSTYYADSVKGRFTISRDNSKNTLYLQMNSLRACDAAVYYCAKVKLGGGPNFGYRGQGTLVTVSS
# modifications: Cys89 blocked with N-ethylmaleimide
# notes: as for B3
# B21: TAR2-10-27 Gln13cys 30K MAL PEG (other)
# VH: ASTEVQLLESGGGLVCPGGSLRLSCAASGFTFEWYWMGWVRQAPGKGLEWVSAISGSGGSTYYADSVKGRFTISRDNSKNTLYLQMNSLRAEDAAVYYCAKVKLGGGPNFGYRGQGTLVTVSS
# modifications: 30K MAL-PEG on Cys13
# notes: as for B3
# Columns and labels:
# hen egg white lysozyme = hen egg white lysozyme (hen, UniProt P00698 19-147); test: batch binding to lysozyme-Sepharose affinity resin, SDS-PAGE read-out
# Experimental: A HEL4 affinity based resin (based on the antigen, hen egg white lysozyme) was produced to test the functionality of the PEGylated dAb. Lysozyme was coupled to NETS activated Sepharose 4B resin (Amersham Pharmacia) following the manufacturer's instructions. The PEGylated samples (5 μg) were then mixed with the affinity resin (100 μl) and allowed to bind in PBS at room temperature for 30 mins. The resin was then extensively washed with PBS (3×1 ml) to remove unbound protein. The affinity resin was then run on a SDS-PAGE to determine if the PEGylated HEL4 had bound to the matrix (see Section 8.3).
# [1] = biological target: p55 TNF-α receptor on MRC-5 cells (human) (UniProt P19438); test: cell-based or functional assay
# [2] = biological target: T1, TNF receptor 1 Fc fusion protein (R&D Systems) (human, UniProt P19438 30-211, limits assumed); test: DOM1 receptor binding assay (RBA): dAb titrated against TNF binding to TNF receptor 1
# T1 construct: also called recombinant TNF receptor 1 (p55); not shown: Fc part of the bought fusion protein, captured by an anti-human Fc antibody
# T1 sequence (looked up): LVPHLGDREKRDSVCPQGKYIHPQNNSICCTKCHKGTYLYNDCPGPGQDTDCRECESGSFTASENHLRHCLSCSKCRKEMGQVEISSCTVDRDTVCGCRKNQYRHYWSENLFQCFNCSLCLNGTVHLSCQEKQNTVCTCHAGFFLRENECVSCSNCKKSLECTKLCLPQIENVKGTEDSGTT
# Experimental: Assays for the measurement of receptor binding by a ligand, e.g., a cytokine, are known in the art. […] Briefly, Maxisorp plates are incubated overnight with […] anti-human Fc mouse monoclonal antibody (Zymed, San Francisco, USA). […] The plate is washed to remove any unbound protein before the detection step. […] The reaction is stopped by the addition of HCl and the absorbance is read at 450 nm.
# Biotinylated human TNFRI [3] = biological target: T2, Biotinylated human TNFRI (human, UniProt P19438 30-211, limits assumed, biotinylated (approx 1 biotin per molecule)); test: SPR (Biacore), biotinylated human TNFRI on streptavidin chip, dAb injected
# T2 sequence (looked up): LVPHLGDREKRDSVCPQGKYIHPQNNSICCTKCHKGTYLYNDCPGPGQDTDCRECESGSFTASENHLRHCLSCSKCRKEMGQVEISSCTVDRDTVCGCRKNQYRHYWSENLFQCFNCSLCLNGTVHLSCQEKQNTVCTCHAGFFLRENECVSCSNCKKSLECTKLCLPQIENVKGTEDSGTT
# Description: (§1) The effect of PEGylation on the binding affinity of TAR2-10-27 for its antigen was investigated using Biacore. All the PEGylated formats were generated using TAR2-10-27cys (see Example 2). The following methodology was used to determine the on and off rates of each PEGylated dAb format for the antigen. Biotinylated human TNFRI (approx 1 biotin per molecule) was coated onto a single flow cell of a Biacore streptavidin sensor chip at a density of approximately 400 RU. A concentration series of each dAb or PEGylated dAb (2.6 μM, 770 nM, 260 nM, 77 nM and 2.6 nM) was sequentially injected (45 μl injection at a flow rate of 30 μl/min) over both the TNFRI coated flow cell and an uncoated flow cell (streptavidin), (a subtractive curve was generated by subtracting the uncoated flow cell curve from the TNFRI flow cell curve). The off-rate was analysed for five minutes after the injection of each sample after which the surface was regenerated by injection of 10 mM glycine pH 3.
# (§2) Data generated from the Biacore was fitted using the curve fitting software (Biaevaluation 3.2) and the association constant (kₐ) and dissociation constant (kd) determined (Table 8).
# Biotinylated human TNFRI [4] = biological target: T2, Biotinylated human TNFRI; test: SPR (Biacore), biotinylated human TNFRI on streptavidin chip, dAb injected; KD from mean kd/ka
# Description: as §1, §2
# Sequence of p55 TNF-α receptor on MRC-5 cells (human) (P19438 30-455): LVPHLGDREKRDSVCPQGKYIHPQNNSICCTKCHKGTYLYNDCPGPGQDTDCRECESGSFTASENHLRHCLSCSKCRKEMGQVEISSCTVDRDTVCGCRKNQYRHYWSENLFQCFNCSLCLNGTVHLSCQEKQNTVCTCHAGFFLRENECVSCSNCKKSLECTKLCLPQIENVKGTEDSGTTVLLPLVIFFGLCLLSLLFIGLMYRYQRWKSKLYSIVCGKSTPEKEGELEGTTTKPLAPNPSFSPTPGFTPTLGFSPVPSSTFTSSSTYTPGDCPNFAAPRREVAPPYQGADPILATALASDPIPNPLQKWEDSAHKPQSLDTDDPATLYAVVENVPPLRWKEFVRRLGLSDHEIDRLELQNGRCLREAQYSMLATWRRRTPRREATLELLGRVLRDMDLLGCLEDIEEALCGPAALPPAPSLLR
# Sequence of hen egg white lysozyme (P00698 19-147 limits assumed): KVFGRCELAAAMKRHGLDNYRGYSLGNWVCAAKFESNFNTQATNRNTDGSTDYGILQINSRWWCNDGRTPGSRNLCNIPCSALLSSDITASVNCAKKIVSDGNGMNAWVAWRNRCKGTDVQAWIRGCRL
Binder,binding result (hen egg white lysozyme),MRC5 cell assay ND 50 [1] [nM],IC50 [2] [nM],koff (Biotinylated human TNFRI [3]) [s⁻¹],kon (Biotinylated human TNFRI [3]) [M⁻¹ s⁻¹],Kd (Biotinylated human TNFRI [4]) [nM]
B1,binds,,,,,
B2,binds,,,,,
B3,,430,15,,,
B4,,1000,,,,
B5,,45,1,,,
B6,,30,2,,,
B7,,600,10,0.00769,83400,92.2
B8,,15,2,,,
B9,,200,8,,,
B10,,30,3,0.00596,577000,10.3
B11,,650,15,,,
B12,,100,20,,,
B13,,700,8,,,
B14,,,,0.012,79900,150
B15,,30,3,,,
B16,,30,3,,,
B17,,,,0.00954,120000,79.5
B18,,,,0.011,90000,122
B19,,300,10,,,
B20,,70,3,,,
B21,,200,8,,,
